Assay results as given in the supplement of paper PMC10065799, “High-throughput profiling of sequence recognition by tyrosine kinases and SH2 domains using bacterial peptide display” (eLife, 2023).

Tests used:
[1] = system: AncSZ; assay: phosphorylation enrichment, bacterial display (enrichment ratio); higher = better substrate or ligand; peptides without Tyr show the background
[2] = target: EPHB1 (UniProt P54762); assay: as above
[3] = target: EPHB2 (UniProt P29323); assay: as above
[4] = target: FGFR1 (UniProt P11362); assay: as above
[5] = target: FGFR3 (UniProt P22607); assay: as above
[6] = system: Fer (mouse); assay: as above
[7] = target: Fes (UniProt P07332); assay: as above
[8] = target: Fyn (UniProt P06241); assay: as above
Sequence of Fyn (P06241 whole entry, looked up): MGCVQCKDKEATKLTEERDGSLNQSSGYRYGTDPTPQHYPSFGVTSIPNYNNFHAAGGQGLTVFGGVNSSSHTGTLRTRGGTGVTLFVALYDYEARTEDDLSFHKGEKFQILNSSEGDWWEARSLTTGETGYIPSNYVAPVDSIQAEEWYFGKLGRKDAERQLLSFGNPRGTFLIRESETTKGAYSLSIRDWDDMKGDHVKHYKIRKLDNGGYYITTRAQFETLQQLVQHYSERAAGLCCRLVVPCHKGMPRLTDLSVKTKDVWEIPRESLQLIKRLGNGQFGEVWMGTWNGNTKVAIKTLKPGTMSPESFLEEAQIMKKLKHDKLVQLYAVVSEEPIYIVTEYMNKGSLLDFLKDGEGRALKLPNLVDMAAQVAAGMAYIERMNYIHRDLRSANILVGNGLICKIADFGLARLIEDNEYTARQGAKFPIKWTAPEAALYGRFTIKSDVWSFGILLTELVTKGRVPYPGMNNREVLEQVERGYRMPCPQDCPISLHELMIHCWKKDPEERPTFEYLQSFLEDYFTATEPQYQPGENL

[9] = target: Hck (UniProt P08631); assay: as above
[10] = target: Jak2 (UniProt O60674); assay: as above
Sequence of Jak2 (O60674 whole entry, looked up): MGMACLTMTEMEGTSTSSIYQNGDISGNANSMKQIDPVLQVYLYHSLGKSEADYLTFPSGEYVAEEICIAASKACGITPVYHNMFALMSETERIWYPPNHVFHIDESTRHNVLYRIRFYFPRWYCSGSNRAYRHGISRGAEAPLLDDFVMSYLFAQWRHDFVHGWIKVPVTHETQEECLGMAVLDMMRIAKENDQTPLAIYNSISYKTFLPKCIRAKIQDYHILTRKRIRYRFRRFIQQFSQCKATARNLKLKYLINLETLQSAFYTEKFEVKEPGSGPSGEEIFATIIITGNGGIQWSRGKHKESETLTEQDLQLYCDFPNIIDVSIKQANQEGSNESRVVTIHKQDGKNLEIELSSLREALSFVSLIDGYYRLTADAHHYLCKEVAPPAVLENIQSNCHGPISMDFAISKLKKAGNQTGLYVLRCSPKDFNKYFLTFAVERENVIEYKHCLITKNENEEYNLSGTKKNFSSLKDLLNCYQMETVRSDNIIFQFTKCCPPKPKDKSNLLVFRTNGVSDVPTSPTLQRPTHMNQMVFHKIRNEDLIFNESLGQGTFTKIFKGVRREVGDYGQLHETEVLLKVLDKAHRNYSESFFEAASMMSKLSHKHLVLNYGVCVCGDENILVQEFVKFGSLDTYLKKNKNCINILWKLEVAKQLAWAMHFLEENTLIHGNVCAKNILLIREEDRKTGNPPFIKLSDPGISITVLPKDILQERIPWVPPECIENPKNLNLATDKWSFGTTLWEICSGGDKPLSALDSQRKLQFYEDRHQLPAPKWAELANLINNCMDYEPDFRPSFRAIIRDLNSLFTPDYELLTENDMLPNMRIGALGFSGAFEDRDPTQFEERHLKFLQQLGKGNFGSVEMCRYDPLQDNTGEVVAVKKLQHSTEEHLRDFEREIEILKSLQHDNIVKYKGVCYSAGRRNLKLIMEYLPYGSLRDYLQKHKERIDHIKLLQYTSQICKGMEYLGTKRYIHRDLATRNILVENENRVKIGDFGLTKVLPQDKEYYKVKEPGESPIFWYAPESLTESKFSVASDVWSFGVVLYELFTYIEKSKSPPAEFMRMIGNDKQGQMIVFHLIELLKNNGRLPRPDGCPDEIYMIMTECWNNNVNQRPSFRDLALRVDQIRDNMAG

[11] = target: MERTK (UniProt Q12866); assay: as above
Sequence of MERTK (Q12866 whole entry, looked up): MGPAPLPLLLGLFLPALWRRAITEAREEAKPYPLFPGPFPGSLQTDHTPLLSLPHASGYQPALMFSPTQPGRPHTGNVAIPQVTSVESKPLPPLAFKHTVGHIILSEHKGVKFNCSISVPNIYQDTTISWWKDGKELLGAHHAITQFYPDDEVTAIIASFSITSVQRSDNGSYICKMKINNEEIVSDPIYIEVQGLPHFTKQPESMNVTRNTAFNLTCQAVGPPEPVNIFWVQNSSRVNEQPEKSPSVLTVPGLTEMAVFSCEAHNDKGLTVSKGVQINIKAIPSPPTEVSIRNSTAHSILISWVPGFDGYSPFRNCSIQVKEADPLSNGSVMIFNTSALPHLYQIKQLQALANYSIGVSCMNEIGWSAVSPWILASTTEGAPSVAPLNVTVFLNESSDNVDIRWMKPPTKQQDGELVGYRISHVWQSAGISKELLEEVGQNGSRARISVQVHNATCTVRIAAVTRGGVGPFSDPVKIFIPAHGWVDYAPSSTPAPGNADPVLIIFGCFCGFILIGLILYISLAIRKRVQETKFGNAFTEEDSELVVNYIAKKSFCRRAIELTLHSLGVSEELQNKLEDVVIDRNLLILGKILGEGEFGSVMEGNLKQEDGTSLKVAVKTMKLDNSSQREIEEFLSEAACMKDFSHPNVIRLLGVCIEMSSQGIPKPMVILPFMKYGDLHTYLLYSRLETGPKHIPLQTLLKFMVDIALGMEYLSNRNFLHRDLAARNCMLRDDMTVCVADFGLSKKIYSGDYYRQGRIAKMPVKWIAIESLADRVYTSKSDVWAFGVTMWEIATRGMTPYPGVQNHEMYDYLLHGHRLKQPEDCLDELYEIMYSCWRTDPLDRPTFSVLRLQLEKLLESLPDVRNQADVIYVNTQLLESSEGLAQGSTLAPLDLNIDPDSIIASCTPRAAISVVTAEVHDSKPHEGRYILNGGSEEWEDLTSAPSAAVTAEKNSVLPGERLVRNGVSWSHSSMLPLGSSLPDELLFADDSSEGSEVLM

[12] = system: c-Abl (mouse); assay: as above
[13] = system: c-Src; assay: as above
[14] = target: Grb2 SH2 (UniProt P62993); assay: SH2 binding enrichment of the phosphorylated peptide, bacterial display (enrichment ratio); higher = better substrate or ligand; peptides without Tyr show the background
[15] = target: SHP2-C SH2; assay: as above
[16] = target: c-Src SH2; assay: as above
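For SH2 binding enrichment of the phosphorylated peptide, bacterial display in this document: peptide library displayed on the E. coli surface as eCPX fusions, selected cells deep-sequenced, score is each peptide's frequency after selection divided by its frequency in the input.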
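For phosphorylation enrichment, bacterial display in this document: 11-residue human phosphosite peptides and single-mutation variants displayed on the E. coli surface, counted by deep sequencing, each peptide's frequency after selection divided by its frequency in the unselected input library; frequency after pTyr selection over input frequency; kinase dosed for 20-30% of maximal phosphorylation in three min.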

Sequence of EPHB1 (P54762 whole entry, looked up): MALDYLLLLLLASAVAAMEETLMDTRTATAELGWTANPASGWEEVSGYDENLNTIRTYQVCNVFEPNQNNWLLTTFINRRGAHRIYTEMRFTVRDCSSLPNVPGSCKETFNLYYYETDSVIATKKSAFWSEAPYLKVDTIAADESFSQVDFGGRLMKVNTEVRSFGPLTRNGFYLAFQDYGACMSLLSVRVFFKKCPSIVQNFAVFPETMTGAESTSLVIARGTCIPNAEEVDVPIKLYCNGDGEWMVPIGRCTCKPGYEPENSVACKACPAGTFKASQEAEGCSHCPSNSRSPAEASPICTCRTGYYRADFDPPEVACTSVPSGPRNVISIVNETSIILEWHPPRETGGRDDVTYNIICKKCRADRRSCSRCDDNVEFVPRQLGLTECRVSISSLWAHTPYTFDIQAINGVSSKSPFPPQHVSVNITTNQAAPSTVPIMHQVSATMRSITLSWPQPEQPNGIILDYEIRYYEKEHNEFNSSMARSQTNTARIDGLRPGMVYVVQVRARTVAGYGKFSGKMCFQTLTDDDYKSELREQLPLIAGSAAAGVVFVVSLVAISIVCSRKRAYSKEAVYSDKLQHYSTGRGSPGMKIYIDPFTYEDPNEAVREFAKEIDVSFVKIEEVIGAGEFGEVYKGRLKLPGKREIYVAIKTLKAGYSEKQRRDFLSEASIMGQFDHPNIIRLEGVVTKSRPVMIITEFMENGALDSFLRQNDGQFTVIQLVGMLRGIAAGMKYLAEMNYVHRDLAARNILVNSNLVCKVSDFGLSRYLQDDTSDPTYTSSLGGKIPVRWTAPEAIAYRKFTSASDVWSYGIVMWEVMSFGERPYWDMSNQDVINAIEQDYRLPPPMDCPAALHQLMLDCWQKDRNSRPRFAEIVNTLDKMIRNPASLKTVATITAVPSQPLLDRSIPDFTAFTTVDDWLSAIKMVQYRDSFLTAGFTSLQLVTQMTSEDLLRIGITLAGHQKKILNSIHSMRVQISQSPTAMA
Sequence of EPHB2 (P29323 whole entry, looked up): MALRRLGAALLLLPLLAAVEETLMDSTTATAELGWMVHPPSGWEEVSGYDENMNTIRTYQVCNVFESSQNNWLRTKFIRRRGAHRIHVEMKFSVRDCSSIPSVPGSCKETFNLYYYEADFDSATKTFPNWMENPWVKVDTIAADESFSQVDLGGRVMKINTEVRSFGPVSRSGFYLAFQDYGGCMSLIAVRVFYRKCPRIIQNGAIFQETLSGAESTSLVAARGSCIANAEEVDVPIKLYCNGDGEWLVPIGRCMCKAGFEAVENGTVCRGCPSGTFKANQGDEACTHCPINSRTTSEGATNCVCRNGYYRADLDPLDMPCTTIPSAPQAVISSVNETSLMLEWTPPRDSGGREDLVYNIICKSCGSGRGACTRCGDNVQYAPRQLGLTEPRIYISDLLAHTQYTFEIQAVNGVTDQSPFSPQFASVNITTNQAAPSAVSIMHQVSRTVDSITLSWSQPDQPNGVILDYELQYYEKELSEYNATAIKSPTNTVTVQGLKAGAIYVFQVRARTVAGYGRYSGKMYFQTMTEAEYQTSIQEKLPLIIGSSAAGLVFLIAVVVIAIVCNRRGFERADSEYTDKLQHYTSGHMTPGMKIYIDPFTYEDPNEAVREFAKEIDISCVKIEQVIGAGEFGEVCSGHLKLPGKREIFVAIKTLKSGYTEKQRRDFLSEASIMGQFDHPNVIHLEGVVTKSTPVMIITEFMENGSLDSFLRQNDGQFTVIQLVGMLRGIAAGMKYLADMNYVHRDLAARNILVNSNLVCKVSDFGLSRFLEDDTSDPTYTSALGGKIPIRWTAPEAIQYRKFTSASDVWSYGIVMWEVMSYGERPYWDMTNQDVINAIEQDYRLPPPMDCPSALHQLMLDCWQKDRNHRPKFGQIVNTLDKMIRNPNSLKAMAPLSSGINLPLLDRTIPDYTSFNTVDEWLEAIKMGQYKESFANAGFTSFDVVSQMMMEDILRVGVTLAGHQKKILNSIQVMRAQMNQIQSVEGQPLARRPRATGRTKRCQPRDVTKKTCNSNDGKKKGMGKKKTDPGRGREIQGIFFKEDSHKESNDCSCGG

Row | SH2 binding enrichment [14] | SH2 binding enrichment [15] | SH2 binding enrichment [16] | Sequence | phosphorylation enrichment [1] | phosphorylation enrichment [2] | phosphorylation enrichment [3] | phosphorylation enrichment [4] | phosphorylation enrichment [5] | phosphorylation enrichment [6] | phosphorylation enrichment [7] | phosphorylation enrichment [8] | phosphorylation enrichment [9] | phosphorylation enrichment [10] | phosphorylation enrichment [11] | phosphorylation enrichment [12] | phosphorylation enrichment [13]
1 | 0.622 | 0.451 | 0.424 | SASRSYSRSRS [SRRM4_Y549] | 0.635 | 0.466 | 0.521 | 0.426 | 0.497 | 0.505 | 0.594 | 0.518 | 0.503 | 0.58 | 0.589 | 0.659 | 0.588
2 | 1.18 | 0.721 | 0.866 | SCRSKYVGLWG [KCNQ1_Y184_G179S] | 0.665 | 0.39 | 0.497 | 0.364 | 0.456 | 0.465 | 0.984 | 0.419 | 0.423 | 0.574 | 0.451 | 0.541 | 0.509
3 | 0.853 | 0.745 | 0.68 | SDGGCYEQLFV [MC4R_Y41] | 1.69 | 0.764 | 0.74 | 0.663 | 0.837 | 9.7 | 1.09 | 1.32 | 2.14 | 0.991 | 0.806 | 0.871 | 1.76
4 | 0.794 | 0.74 | 0.554 | SDVCMYRKNIF [SYNE2_Y570_YF] | 0.906 | 0.536 | 0.479 | 0.48 | 0.712 | 0.354 | 1.12 | 0.371 | 0.355 | 0.931 | 0.448 | 0.793 | 0.436
5 | 0.783 | 0.584 | 0.486 | SFCFRYRCAPR [SUMF1_Y344_A348P_YF] | 0.883 | 0.527 | 0.549 | 0.509 | 0.587 | 0.726 | 0.69 | 0.605 | 0.633 | 0.811 | 0.73 | 0.75 | 0.701
6 | 1.12 | 0.891 | 0.77 | SGRPGYCLGTR [SCO1_Y60] | 0.735 | 0.488 | 0.51 | 0.406 | 0.563 | 0.407 | 0.874 | 0.474 | 0.426 | 0.58 | 0.462 | 0.618 | 0.41
7 | 0.58 | 0.373 | 0.468 | SGRRRYTIAAL [TTR_Y125_P122R] | 0.602 | 0.615 | 0.581 | 0.547 | 0.598 | 0.6 | 0.622 | 0.61 | 0.517 | 0.51 | 0.601 | 0.512 | 0.736
8 | 1.77 | 15.5 | 1.92 | SHNKYYMLVAR [MFSD8_Y134] | 0.825 | 0.943 | 0.675 | 5.4 | 3.28 | 0.486 | 0.939 | 0.494 | 0.658 | 1.14 | 2.9 | 0.6 | 0.487
9 | 0.661 | 0.486 | 0.544 | SIDLGYHKDLQ [NF1_Y1169_G1166D] | 1.17 | 0.46 | 0.478 | 0.607 | 0.485 | 0.503 | 0.777 | 0.51 | 0.454 | 0.856 | 0.531 | 0.557 | 0.552
10 | 1.16 | 1.04 | 0.81 | SKEPYYVHCIK [MYO1D_Y586_R588H] | 0.965 | 0.622 | 0.704 | 0.77 | 0.664 | 0.498 | 0.932 | 0.58 | 0.557 | 0.677 | 0.559 | 0.615 | 0.543
11 | 0.991 | 29.3 | 11.1 | SKGYAYVHFDS [PABPC5_Y149] | 1.22 | 0.575 | 0.561 | 0.632 | 0.749 | 0.584 | 1.25 | 0.449 | 0.53 | 1.05 | 0.37 | 0.953 | 0.479
12 | 0.892 | 0.873 | 0.518 | SLALFYRNVFH [RBL1_Y792_K794N_YF] | 0.962 | 0.573 | 1.02 | 0.447 | 0.649 | 0.497 | 1.19 | 0.49 | 0.5 | 1.02 | 0.422 | 0.688 | 0.409
13 | 0.763 | 0.678 | 0.632 | SLGKGYSDGGC [MC4R_Y35] | 0.636 | 0.456 | 0.473 | 0.576 | 0.585 | 0.399 | 0.773 | 0.47 | 0.427 | 0.719 | 0.392 | 0.603 | 0.387
14 | 0.877 | 0.697 | 0.442 | SLMNQYVNKKF [RAB7A_Y28] | 0.474 | 0.291 | 0.373 | 0.381 | 0.396 | 0.398 | 0.579 | 0.383 | 0.427 | 0.44 | 0.315 | 0.447 | 0.342
15 | 0.919 | 0.752 | 0.714 | SNPAFYVLEGV [INPPL1_Y987_N982S_YF] | 0.818 | 0.469 | 0.559 | 0.509 | 0.63 | 0.427 | 1.06 | 0.648 | 0.441 | 0.765 | 0.517 | 0.646 | 0.732
16 | 0.691 | 0.572 | 0.39 | SNSATYSGSVA [PDLIM5_Y382] | 0.748 | 0.347 | 0.497 | 0.432 | 0.483 | 0.392 | 0.624 | 0.561 | 0.56 | 0.48 | 0.516 | 0.576 | 0.498
17 | 1.09 | 0.729 | 0.519 | SPFAVYLFFTF [RPGRIP1_Y826_R827L_YF] | 0.99 | 0.434 | 0.744 | 0.467 | 0.63 | 0.335 | 0.925 | 0.477 | 0.361 | 0.891 | 0.34 | 0.754 | 0.425
18 | 0.878 | 0.712 | 0.484 | SPLTDYSPQLQ [OTC_Y345_L341P] | 0.749 | 0.414 | 0.517 | 0.522 | 0.489 | 0.421 | 0.67 | 0.403 | 0.417 | 0.691 | 0.479 | 0.661 | 0.496
19 | 0.729 | 0.54 | 0.428 | SQPASYQRRLL [PPIG_Y320] | 0.394 | 0.313 | 0.337 | 0.472 | 0.396 | 0.286 | 0.451 | 0.53 | 0.253 | 0.35 | 0.316 | 0.301 | 0.365
20 | 0.744 | 0.641 | 0.373 | SSMIDYNPLEK [MYOC_Y479] | 0.971 | 0.517 | 0.533 | 0.475 | 0.595 | 0.44 | 0.945 | 0.596 | 0.512 | 1.07 | 0.463 | 0.663 | 0.689

Second part, the sequence before the results:

Row | Sequence | SH2 binding enrichment [14] | SH2 binding enrichment [15] | SH2 binding enrichment [16] | phosphorylation enrichment [1] | phosphorylation enrichment [2] | phosphorylation enrichment [3] | phosphorylation enrichment [4] | phosphorylation enrichment [5] | phosphorylation enrichment [6] | phosphorylation enrichment [7] | phosphorylation enrichment [8] | phosphorylation enrichment [9] | phosphorylation enrichment [10] | phosphorylation enrichment [11] | phosphorylation enrichment [12] | phosphorylation enrichment [13]
21 | SEDSEYFKAFE [CASQ2_Y178_YF] | 0.868 | 0.709 | 0.544 | 1.46 | 0.714 | 0.653 | 0.608 | 0.882 | 0.471 | 1.41 | 0.572 | 0.582 | 1.34 | 0.557 | 0.974 | 0.651
22 | SFPSTYRFERG [INPPL1_Y661_P659S_YF] | 0.828 | 0.655 | 0.466 | 0.538 | 0.345 | 0.394 | 0.411 | 0.538 | 0.427 | 0.652 | 0.39 | 0.479 | 0.724 | 0.392 | 0.644 | 0.569
23 | SGASGYSATST [CERT1_Y143] | 0.704 | 0.578 | 0.486 | 0.594 | 0.391 | 0.514 | 0.478 | 0.446 | 0.448 | 0.594 | 0.491 | 0.478 | 0.539 | 0.44 | 0.468 | 0.417
24 | SIKDKYVMALY [KCNH2_Y611_T613M] | 0.836 | 0.679 | 0.514 | 0.639 | 0.505 | 0.481 | 0.638 | 0.547 | 0.45 | 0.734 | 0.483 | 0.59 | 0.648 | 0.441 | 0.599 | 0.422
25 | SISFDYCRVPM [BST2_Y8_T4I_YF] | 0.726 | 0.65 | 0.39 | 1.65 | 2.13 | 1.36 | 1.43 | 1.39 | 0.533 | 1.15 | 0.463 | 0.546 | 1.43 | 0.547 | 0.785 | 0.528
26 | SLAARYFNWVS [FLT4_Y1230_YF] | 2.68 | 1.39 | 1.15 | 1.15 | 0.586 | 0.698 | 0.555 | 0.718 | 0.479 | 1.26 | 0.494 | 0.532 | 0.935 | 0.636 | 0.822 | 0.431
27 | SLDLSYFPTSS [EMD_Y181_YF] | 0.8 | 1.1 | 0.414 | 0.879 | 0.426 | 0.513 | 0.59 | 0.635 | 0.353 | 0.793 | 0.496 | 0.432 | 2.93 | 0.56 | 0.632 | 0.502
28 | SLDLSYFTTSS [EMD_Y181_P183T_YF] | 0.803 | 0.675 | 0.55 | 0.876 | 0.468 | 0.475 | 0.499 | 0.605 | 0.37 | 0.836 | 0.38 | 0.451 | 1.04 | 0.371 | 0.644 | 0.382
29 | SPPILYSFFLN [FCRL6_Y239_D244N_YF] | 1.29 | 1.28 | 0.763 | 1.08 | 3.03 | 2.36 | 1.41 | 1.38 | 5.01 | 1.17 | 2.46 | 3.03 | 1.05 | 10.5 | 2.75 | 3.41
30 | SRIWVYNHYRC [BRCA2_Y2621_W2626C] | 0.938 | 0.864 | 0.695 | 0.927 | 0.555 | 0.587 | 0.51 | 0.726 | 0.482 | 1.11 | 0.396 | 0.459 | 0.934 | 0.377 | 0.65 | 0.392
31 | SRIWVYNHYRW [BRCA2_Y2621] | 1.14 | 1.1 | 1.17 | 1.05 | 0.671 | 0.466 | 0.574 | 0.845 | 0.396 | 1.59 | 0.469 | 0.442 | 0.95 | 0.466 | 0.783 | 0.402
32 | SRPHLYGTPSR [ADGRE2_Y670] | 1.54 | 0.825 | 1.09 | 0.609 | 0.493 | 0.617 | 0.426 | 0.619 | 0.402 | 0.587 | 0.615 | 0.565 | 0.588 | 0.58 | 0.538 | 0.441
33 | SSENPYATIKD [MEGF10_Y1030] | 0.985 | 9.45 | 14 | 0.87 | 0.458 | 0.597 | 0.496 | 0.53 | 0.944 | 0.897 | 1.52 | 1.65 | 0.876 | 0.506 | 0.741 | 2.31
